Measured values: publication PMC5027563, “Functional Recovery of AQP2 Recessive Mutations Through Hetero-Oligomerization with Wild-Type Counterpart” (Scientific Reports, 2016)

Key:
[1] = biological target: T1, wild-type Aquaporin-2 (untagged) (human, UniProt P41181 1-271)
T1 sequence (looked up): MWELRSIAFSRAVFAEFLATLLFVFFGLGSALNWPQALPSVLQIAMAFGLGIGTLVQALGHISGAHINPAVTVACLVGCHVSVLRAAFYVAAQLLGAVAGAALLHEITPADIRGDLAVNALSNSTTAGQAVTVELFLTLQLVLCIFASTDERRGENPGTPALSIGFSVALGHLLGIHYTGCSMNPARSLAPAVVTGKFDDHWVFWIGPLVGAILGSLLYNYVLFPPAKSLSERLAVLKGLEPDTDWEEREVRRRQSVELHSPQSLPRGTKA

[2] = biological target: T1, wild-type Aquaporin-2 (untagged); remark: listed apart in the source
[3] = biological target: T1, wild-type Aquaporin-2 (untagged); experiment: cell-based or functional assay
[4] = biological target: T2, GFP-tagged Aquaporin-2 D150E (human, UniProt P41181 1-271, D150E); experiment: co-IP; Xenopus oocytes co-injected with 0.5 ng mRNA of an untagged AQP2 variant and 1 ng (equimolar) of a GFP-tagged form, 24 h; total membranes solubilised in 2% deoxycholate in PBS, 100,000 x g supernatant; IP with goat anti-GFP and protein-G magnetic beads at room temperature; blot with anti-AQP2 of the untagged 29 kDa band; densitometry in % of wt-AQP2, 4 assays; details: partners not purified
T2 construct: Aquaporin-2 (AQP2), human, recessive NDI mutation D150E, GFP-tagged form; The methods describe only how pT7Ts-GFP-AQP2 (wild type) was made; also called GFP-tagged D150E; source: Xenopus laevis oocytes, cRNA injected; total membranes solubilised in 2% deoxycholate
T2 sequence (looked up): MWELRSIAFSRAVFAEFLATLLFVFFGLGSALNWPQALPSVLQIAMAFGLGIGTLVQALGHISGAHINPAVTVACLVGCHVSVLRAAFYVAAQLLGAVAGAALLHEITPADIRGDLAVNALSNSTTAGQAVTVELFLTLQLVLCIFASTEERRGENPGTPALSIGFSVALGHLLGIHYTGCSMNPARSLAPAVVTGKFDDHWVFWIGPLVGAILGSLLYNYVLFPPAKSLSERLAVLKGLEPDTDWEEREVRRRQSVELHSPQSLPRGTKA

[5] = biological target: T3, GFP-tagged wild-type Aquaporin-2 (human, UniProt P41181 1-271); experiment: as above; details: partners not purified
T3 construct: Aquaporin-2 (AQP2), human, wild type, from pT7Ts-GFP-AQP2 (subcloned through the pAc-GFP vector); 58 kDa with GFP; also called GFP-wt-AQP2; GFP-tagged-WT; source: Xenopus laevis oocytes, cRNA injected; total membranes solubilised in 2% deoxycholate
T3 sequence (looked up): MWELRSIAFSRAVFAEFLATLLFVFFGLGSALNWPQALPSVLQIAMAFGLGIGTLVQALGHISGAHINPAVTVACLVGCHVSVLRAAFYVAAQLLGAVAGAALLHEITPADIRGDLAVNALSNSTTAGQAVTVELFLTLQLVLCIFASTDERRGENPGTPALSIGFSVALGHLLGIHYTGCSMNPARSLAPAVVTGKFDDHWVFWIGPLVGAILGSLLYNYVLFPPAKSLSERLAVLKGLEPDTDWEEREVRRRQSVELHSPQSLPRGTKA

[6] = biological target: T4, GFP-tagged Aquaporin-2 V24A (human, UniProt P41181 1-271, V24A); experiment: as above; details: partners not purified
T4 construct: Aquaporin-2 (AQP2), human, recessive NDI mutation V24A, GFP-tagged form; The methods describe only how pT7Ts-GFP-AQP2 (wild type) was made; also called GFP-tagged V24A; source: Xenopus laevis oocytes, cRNA injected; total membranes solubilised in 2% deoxycholate
T4 sequence (looked up): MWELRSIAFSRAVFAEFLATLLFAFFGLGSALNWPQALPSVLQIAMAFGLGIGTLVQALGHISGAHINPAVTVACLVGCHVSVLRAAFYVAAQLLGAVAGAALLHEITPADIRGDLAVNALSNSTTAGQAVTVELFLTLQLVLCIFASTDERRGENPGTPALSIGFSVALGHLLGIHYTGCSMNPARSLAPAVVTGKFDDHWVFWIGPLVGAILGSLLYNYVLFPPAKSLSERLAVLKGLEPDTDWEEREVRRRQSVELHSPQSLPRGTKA

B1: Aquaporin-2 L22V (untagged) (natural protein)
chain: MWELRSIAFSRAVFAEFLATLVFVFFGLGSALNWPQALPSVLQIAMAFGLGIGTLVQALGHISGAHINPAVTVACLVGCHVSVLRAAFYVAAQLLGAVAGAALLHEITPADIRGDLAVNALSNSTTAGQAVTVELFLTLQLVLCIFASTDERRGENPGTPALSIGFSVALGHLLGIHYTGCSMNPARSLAPAVVTGKFDDHWVFWIGPLVGAILGSLLYNYVLFPPAKSLSERLAVLKGLEPDTDWEEREVRRRQSVELHSPQSLPRGTKA
[1]
  net increase (gain of function) in water permeability (Pf) of oocytes when expressed along wt-AQP2, in % of the wt-AQP2 activity (% of the wt-AQP2 activity): 106

B2: Aquaporin-2 T126M (untagged) (natural protein)
chain: MWELRSIAFSRAVFAEFLATLLFVFFGLGSALNWPQALPSVLQIAMAFGLGIGTLVQALGHISGAHINPAVTVACLVGCHVSVLRAAFYVAAQLLGAVAGAALLHEITPADIRGDLAVNALSNSTMAGQAVTVELFLTLQLVLCIFASTDERRGENPGTPALSIGFSVALGHLLGIHYTGCSMNPARSLAPAVVTGKFDDHWVFWIGPLVGAILGSLLYNYVLFPPAKSLSERLAVLKGLEPDTDWEEREVRRRQSVELHSPQSLPRGTKA
[1]
  net increase (gain of function) in water permeability (Pf) of oocytes when expressed along wt-AQP2, in % of the wt-AQP2 activity (% of the wt-AQP2 activity): 42

B3: Aquaporin-2 A147T (untagged) (natural protein)
chain: MWELRSIAFSRAVFAEFLATLLFVFFGLGSALNWPQALPSVLQIAMAFGLGIGTLVQALGHISGAHINPAVTVACLVGCHVSVLRAAFYVAAQLLGAVAGAALLHEITPADIRGDLAVNALSNSTTAGQAVTVELFLTLQLVLCIFTSTDERRGENPGTPALSIGFSVALGHLLGIHYTGCSMNPARSLAPAVVTGKFDDHWVFWIGPLVGAILGSLLYNYVLFPPAKSLSERLAVLKGLEPDTDWEEREVRRRQSVELHSPQSLPRGTKA
[1]
  net increase (gain of function) in water permeability (Pf) of oocytes when expressed along wt-AQP2, in % of the wt-AQP2 activity (% of the wt-AQP2 activity): 45

B4: Aquaporin-2 R254Q (untagged) (natural protein)
chain: MWELRSIAFSRAVFAEFLATLLFVFFGLGSALNWPQALPSVLQIAMAFGLGIGTLVQALGHISGAHINPAVTVACLVGCHVSVLRAAFYVAAQLLGAVAGAALLHEITPADIRGDLAVNALSNSTTAGQAVTVELFLTLQLVLCIFASTDERRGENPGTPALSIGFSVALGHLLGIHYTGCSMNPARSLAPAVVTGKFDDHWVFWIGPLVGAILGSLLYNYVLFPPAKSLSERLAVLKGLEPDTDWEEREVRRQQSVELHSPQSLPRGTKA
[2]
  water permeability (Pf) of oocytes injected with 1 ng mRNA mixtures of wt/mut ratios 4/0 to 0/4, in % of pure wt-AQP2; the printed value is of the 2/2 ratio; dominant negative effect (% of pure wt-AQP2): 14

B5: Aquaporin-2 D150E (untagged) (natural protein, human, UniProt P41181 1-271, looked up)
chain: MWELRSIAFSRAVFAEFLATLLFVFFGLGSALNWPQALPSVLQIAMAFGLGIGTLVQALGHISGAHINPAVTVACLVGCHVSVLRAAFYVAAQLLGAVAGAALLHEITPADIRGDLAVNALSNSTTAGQAVTVELFLTLQLVLCIFASTEERRGENPGTPALSIGFSVALGHLLGIHYTGCSMNPARSLAPAVVTGKFDDHWVFWIGPLVGAILGSLLYNYVLFPPAKSLSERLAVLKGLEPDTDWEEREVRRRQSVELHSPQSLPRGTKA
notes: Aquaporin-2 (AQP2), human, recessive NDI mutation D150E from reported clinical cases, made by site-directed mutagenesis in pT7Ts; also called rec-AQP2; source: Xenopus laevis oocytes, cRNA injected; total membranes solubilised in 2% deoxycholate
[3]
  gain of function in water permeability (Pf) of oocytes on coexpression with wt-AQP2 (specific activity with wt-AQP2 minus without), in % of wt-AQP2 activity: 65.2 % of wt-AQP2 activity
[4]
  co-precipitated untagged band, densitometry in % of wt-AQP2 (rec/rec homomers): 30 % of wt-AQP2
[5]
  co-precipitated untagged band, densitometry in % of wt-AQP2 (wt/rec heteromers): 86 % of wt-AQP2

B6: Aquaporin-2 R187C (untagged) (natural protein, human, UniProt P41181 1-271, looked up)
chain: MWELRSIAFSRAVFAEFLATLLFVFFGLGSALNWPQALPSVLQIAMAFGLGIGTLVQALGHISGAHINPAVTVACLVGCHVSVLRAAFYVAAQLLGAVAGAALLHEITPADIRGDLAVNALSNSTTAGQAVTVELFLTLQLVLCIFASTDERRGENPGTPALSIGFSVALGHLLGIHYTGCSMNPACSLAPAVVTGKFDDHWVFWIGPLVGAILGSLLYNYVLFPPAKSLSERLAVLKGLEPDTDWEEREVRRRQSVELHSPQSLPRGTKA
[3]
  gain of function in water permeability (Pf) of oocytes on coexpression with wt-AQP2 (specific activity with wt-AQP2 minus without), in % of wt-AQP2 activity; not functionally recovered: 0.4 % of wt-AQP2 activity

B7: Aquaporin-2 V24A (untagged) (natural protein, human, UniProt P41181 1-271, looked up)
chain: MWELRSIAFSRAVFAEFLATLLFAFFGLGSALNWPQALPSVLQIAMAFGLGIGTLVQALGHISGAHINPAVTVACLVGCHVSVLRAAFYVAAQLLGAVAGAALLHEITPADIRGDLAVNALSNSTTAGQAVTVELFLTLQLVLCIFASTDERRGENPGTPALSIGFSVALGHLLGIHYTGCSMNPARSLAPAVVTGKFDDHWVFWIGPLVGAILGSLLYNYVLFPPAKSLSERLAVLKGLEPDTDWEEREVRRRQSVELHSPQSLPRGTKA
notes: Aquaporin-2 (AQP2), human, recessive NDI mutation V24A from reported clinical cases, made by site-directed mutagenesis in pT7Ts; also called rec-AQP2; source: Xenopus laevis oocytes, cRNA injected; total membranes solubilised in 2% deoxycholate
[3]
  gain of function in water permeability (Pf) of oocytes on coexpression with wt-AQP2 (specific activity with wt-AQP2 minus without), in % of wt-AQP2 activity: 63.9 % of wt-AQP2 activity
  water permeability (Pf) of oocytes injected with 1 ng mRNA mixtures of wt/mut ratios 4/0 to 0/4, in % of pure wt-AQP2; the printed value is of the 2/2 ratio: 87 % of pure wt-AQP2
[5]
  co-precipitated untagged band, densitometry in % of wt-AQP2 (wt/rec heteromers): 75 % of wt-AQP2
[6]
  co-precipitated untagged band, densitometry in % of wt-AQP2 (rec/rec homomers): 26 % of wt-AQP2
